Assay [1] deals with T1, mTMPRSS6_S762A-MMH (mouse, UniProt Q9DBI0 81-811).
T1 construct: also called REGN6848; mouse TMPRSS6 extracellular domain with a S762A mutation and a C-terminal myc-myc-hexahistidine tag
Nature of the assay: SPR, mAb captured via anti-hFc, 25 C. The procedure: (§1) The equilibrium dissociation constant (KD) for TMPRSS6 binding to different TMPRSS6 monoclonal antibodies (mAbs) was determined using a real-time surface plasmon resonance biosensor using a Biacore 4000 instrument. All binding studies were performed in 10 mM HEPES, 150 mM NaCl, 3 mM EDTA, and 0.05% v/v Surfactant Tween-20, pH 7.4 (HBS-ET) running buffer at 25° C. and 37° C. The Biacore CM5 sensor chip surface was first derivatized by amine coupling with a human Fc specific mouse mAb to capture different TMPRSS6 mAbs. […] Different concentrations (100 nM to 3.7 nM, 3-fold serial dilution) of the TMPRSS6 reagent proteins prepared in HBS-EP running buffer were injected over the TMPRSS6 mAb captured surface for 150 seconds at a flow rate of 30 μL/min and their dissociation in HBS-ET running buffer was monitored for 10 minutes. At the end of each cycle, the TMPRSS6 mAb captured surface was regenerated using a 12 second injection of 20 mM phosphoric acid.
(§2) The association rate (kₐ) and dissociation rate (kd) were determined by fitting the real-time binding sensorgrams to a 1:1 binding model with mass transport limitation using Scrubber 2.0 (BioLogic Software) curve-fitting software. Binding dissociation equilibrium constant (KD) and dissociative half-life (t½) were calculated from the kinetic rates as: […]

Assay [2] addresses T1, mTMPRSS6_S762A-MMH. Nature of the assay: SPR, mAb captured via anti-hFc, 37 C. The procedure:
as §1, §2

In assay [3] the target is T2, full length mouse TMPRSS6 on HEK293 cells (HEK293/mTMPRSS6) (mouse, UniProt Q9DBI0 1-811).
T2 construct: line sorted for high expression
T2 sequence: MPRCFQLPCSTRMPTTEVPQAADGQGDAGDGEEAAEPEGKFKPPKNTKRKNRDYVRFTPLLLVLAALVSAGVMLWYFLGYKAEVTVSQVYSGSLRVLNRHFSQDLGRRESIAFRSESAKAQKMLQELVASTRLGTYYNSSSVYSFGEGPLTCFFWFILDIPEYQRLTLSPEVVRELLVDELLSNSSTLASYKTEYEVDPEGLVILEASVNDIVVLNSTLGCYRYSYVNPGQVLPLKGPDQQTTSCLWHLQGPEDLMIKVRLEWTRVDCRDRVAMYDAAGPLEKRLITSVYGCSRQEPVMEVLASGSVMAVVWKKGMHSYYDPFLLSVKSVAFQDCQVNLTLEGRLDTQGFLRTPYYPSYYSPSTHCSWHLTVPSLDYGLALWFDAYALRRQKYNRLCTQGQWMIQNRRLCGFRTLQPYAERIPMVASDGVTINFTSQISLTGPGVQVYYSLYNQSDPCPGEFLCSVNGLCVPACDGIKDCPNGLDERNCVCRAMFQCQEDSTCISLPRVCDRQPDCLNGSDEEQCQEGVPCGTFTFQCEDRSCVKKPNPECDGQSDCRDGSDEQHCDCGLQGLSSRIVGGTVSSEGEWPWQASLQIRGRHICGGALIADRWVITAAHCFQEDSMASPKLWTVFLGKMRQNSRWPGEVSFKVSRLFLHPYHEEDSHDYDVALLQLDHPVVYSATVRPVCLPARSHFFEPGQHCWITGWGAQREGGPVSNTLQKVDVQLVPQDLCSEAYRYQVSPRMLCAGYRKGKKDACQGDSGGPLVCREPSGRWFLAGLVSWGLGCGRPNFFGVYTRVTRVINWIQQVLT
Nature of the assay: flow cytometry, HEK293/mTMPRSS6 cells. Background: In flow cytometry, cells or beads pass a laser one at a time.

Assay [4] addresses T3, full length human TMPRSS6 on HEK293 cells (HEK293/hTMPRSS6) (human, UniProt Q8IU80 10-811).
T3 construct: whole, on cells
T3 sequence (looked up): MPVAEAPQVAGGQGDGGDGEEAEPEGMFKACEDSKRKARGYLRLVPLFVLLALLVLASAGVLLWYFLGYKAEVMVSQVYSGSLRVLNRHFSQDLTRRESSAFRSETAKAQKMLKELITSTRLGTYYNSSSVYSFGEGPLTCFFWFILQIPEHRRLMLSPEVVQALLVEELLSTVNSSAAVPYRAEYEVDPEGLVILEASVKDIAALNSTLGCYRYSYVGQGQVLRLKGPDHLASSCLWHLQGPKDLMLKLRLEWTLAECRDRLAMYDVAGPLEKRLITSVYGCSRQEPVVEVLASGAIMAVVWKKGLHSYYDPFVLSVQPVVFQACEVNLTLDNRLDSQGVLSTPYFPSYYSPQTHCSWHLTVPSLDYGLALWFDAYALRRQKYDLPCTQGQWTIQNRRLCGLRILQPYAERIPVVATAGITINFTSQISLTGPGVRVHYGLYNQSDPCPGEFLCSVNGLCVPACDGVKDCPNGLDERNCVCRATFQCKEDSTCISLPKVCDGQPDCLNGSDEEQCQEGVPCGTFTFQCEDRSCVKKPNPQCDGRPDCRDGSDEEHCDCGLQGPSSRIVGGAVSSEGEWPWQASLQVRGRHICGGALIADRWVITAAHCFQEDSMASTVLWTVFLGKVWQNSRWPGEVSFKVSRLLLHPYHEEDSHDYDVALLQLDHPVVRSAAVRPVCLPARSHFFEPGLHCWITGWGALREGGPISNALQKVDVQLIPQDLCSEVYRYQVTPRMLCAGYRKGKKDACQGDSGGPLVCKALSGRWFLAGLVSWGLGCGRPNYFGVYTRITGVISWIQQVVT
Description: flow cytometry, HEK293 cells expressing target. The protocol: To assess the binding of anti-TMPRSS6 antibodies of the present disclosure to the receptor expressed on the cell surface, antibodies (including an IgG subclass control) were serially diluted in assay buffer (PBS without Ca⁺⁺ and Mg⁺⁺ containing 2% FBS) from 375 nM to 22.9 pM (plus a sample containing assay buffer alone without test molecule) and incubated with 0.5×10⁶ cells/well at 4° C. for 30 minutes in assay buffer. […] Cells were fixed using BD CytoFix™ (Becton Dickinson, #554655) and analyzed on either the IQue® or IQue®Plus Flow Cytometers (Intellicyt®). Unstained and secondary antibody alone controls were also tested for all cell lines. The results were analyzed using ForeCyt® (IntelliCyt®) software to determine the geometric means of fluorescence for viable cells and binding ratio was calculated by normalizing the geometric mean value of the test condition by the geometric mean value of the corresponding unstained cells.

Assay [5] addresses T2, full length mouse TMPRSS6 on HEK293 …. Nature of the assay: cell-based or functional assay.

The term EC50 denotes the concentration at which the effect is half-maximal. Low values mean higher potency in that assay, high ones lower potency in that assay. As a reminder, the Kd is the free concentration of one partner at which half of the binding sites on the other are occupied at equilibrium, for simple one-to-one binding. A low value points to higher affinity. What is called koff is a measure of how fast the partners let go of each other. In general, kon refers to the rate constant with which the complex forms. Lower therefore signals slower complex formation. In general, t½ refers to the time in which the quantity being followed falls by half. Low readings indicate fast loss, high ones slow loss.

T1 sequence (Q9DBI0 other isoform, or with tags, fused parts or gaps S762A S762A): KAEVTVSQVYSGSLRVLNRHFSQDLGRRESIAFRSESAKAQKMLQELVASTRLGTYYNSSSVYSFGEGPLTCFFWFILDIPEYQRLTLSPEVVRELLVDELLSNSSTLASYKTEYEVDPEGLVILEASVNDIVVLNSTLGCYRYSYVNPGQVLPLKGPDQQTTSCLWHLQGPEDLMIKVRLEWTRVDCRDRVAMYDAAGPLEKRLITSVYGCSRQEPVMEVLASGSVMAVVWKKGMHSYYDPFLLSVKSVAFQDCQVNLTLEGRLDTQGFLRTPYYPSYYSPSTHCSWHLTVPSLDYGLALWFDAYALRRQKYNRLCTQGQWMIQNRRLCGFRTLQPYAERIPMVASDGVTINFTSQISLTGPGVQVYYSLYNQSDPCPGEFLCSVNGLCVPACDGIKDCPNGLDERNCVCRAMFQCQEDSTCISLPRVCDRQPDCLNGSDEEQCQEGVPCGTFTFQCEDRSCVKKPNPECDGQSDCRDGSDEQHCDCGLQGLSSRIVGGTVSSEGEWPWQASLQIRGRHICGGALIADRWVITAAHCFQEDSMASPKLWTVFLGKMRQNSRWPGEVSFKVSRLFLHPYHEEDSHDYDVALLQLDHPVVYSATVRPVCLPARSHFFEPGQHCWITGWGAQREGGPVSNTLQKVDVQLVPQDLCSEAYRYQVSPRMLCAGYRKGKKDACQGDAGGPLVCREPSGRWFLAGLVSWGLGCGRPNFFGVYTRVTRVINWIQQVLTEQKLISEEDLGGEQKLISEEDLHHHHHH

B1: REGN7974 (antibody, human IgG4 S228P, kappa, V domains shown)
VH: EVQLVESGGGLVQPGRSLRLSCIASGFNFGDYGMSWVRQAPGKGLEWVGFIRSKAYGGTTEYAASVKGRFTISRDDSKSIAYLQMNSLKTEDAAMYYCSRDYYDILTGYYGDYWGQGTLVTVSS
VL: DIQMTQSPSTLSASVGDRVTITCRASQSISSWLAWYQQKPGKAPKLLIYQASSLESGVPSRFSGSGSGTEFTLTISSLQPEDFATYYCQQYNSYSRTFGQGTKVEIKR
notes: fully human; human IgG4 Fc with hinge S108P; also called mAb41422
In the case of B1, in the assay with mTMPRSS6_S762A-MMH [1], the “100 nM Ag Bound” value turned out to be 3 RU and the binding result is recorded as “no binding (tested: 100 nM)”. For the same molecule, the “100 nM Ag Bound” value with mTMPRSS6_S762A-MMH [2] is 3 RU. In assay [3], the binding result is “no binding (tested: 375 nM)”. In assay [4], the midpoint of the response, the EC50, lay at 2.4 nM and the “Max. Fold Binding” value is 54 fold over unstained control.

B2: REGN7999 (antibody, human IgG4 S228P, kappa, V domains shown)
VH: EVQLVESGGGLVQPGGSLRLSCAASGFTFSSYAMTWVRQAPGKGLEWVSAISGSDTSTYYADSVKGRFTISRDNSKNTLFLQMNSLRAEDTAVYYCAKHQDYDFSYYYSAMDVWGQGTTVTVSS
VL: DIQMTQSPSSLSASVGDRVIITCRASQDFNSWLAWYQQKPGKAPKLLIYAASSLQSGVPSRFSGSGSGTDFTLTISSLQPEDFATYYCQQTDSFPFTFGPGTKVDIKR
notes: fully human; human IgG4 Fc with hinge S108P; also called mAb41450
Take B2: in assay [5], the “% inhibition, HEK293 bioassay, 30 min pre-incubation 25 C” value (“% inhibition, HEK293 bioassay” for short) came to 88% and the “IC50, HEK293 bioassay, 30 min pre-incubation 25 C” value (from here on “IC50, HEK293 bioassay”) stood at 3.6 nM. Besides, in the assay with mTMPRSS6_S762A-MMH [1], the “100 nM Ag Bound” value is 178 RU, the dissociation constant (Kd) stood at 0.0829 nM, the off-rate (koff) stood at 3.45e-05 s⁻¹ and the kon is 416000 M⁻¹ s⁻¹. Moreover, the t½ in the assay with mTMPRSS6_S762A-MMH [1] was 334 min. Moreover, in the assay with mTMPRSS6_S762A-MMH [2], the “100 nM Ag Bound” value stood at 130 RU, the Kd worked out at 0.317 nM, the off-rate constant (koff) came out at 0.00016 s⁻¹ and the kon turned out to be 505000 M⁻¹ s⁻¹. In the assay with mTMPRSS6_S762A-MMH [2], this molecule returned a t½ of 72 min. In assay [4], the response was half-maximal at 2.2 nM (EC50) and the “Max. Fold Binding” value was 50 fold over unstained control.

B3: REGN7977 (antibody, V domains shown)
VH: EVQLVESGGGLVKPGGSLRVSCAASGVTFSNVWMSWVRQVPGKGLEWVGRIKSKTDGGTTDYAAPVKGRFTISKDDSKNTLFLQMNSLKTEDTAVYYCTTETGDFWSGYYPRFQHWGQGTLVTVSS
VL: DIQMTQSPSSLSASVGDRVTITCRASQYISTYLNWYQQKPGKAPSLLIYAASSLQSGVPSRFSGSGSGTDFTLTISSLQPEDFASYSCQQSYSTPPYTFGQGTKLEIKR
notes: fully human; human IgG4 Fc with hinge S108P; also called mAb41465
B3: in assay [5], the “% inhibition, HEK293 bioassay” value worked out at 58% and the “IC50, HEK293 bioassay” value came to 35 nM. Moreover, in the assay with mTMPRSS6_S762A-MMH [1], the “100 nM Ag Bound” value is 20 RU, binding was put at a Kd of 233 nM, the koff is 0.067 s⁻¹ and the kon was determined as 288000 M⁻¹ s⁻¹. Further, in the assay with mTMPRSS6_S762A-MMH [1], the t½ was determined as 0.17 min. In the assay with mTMPRSS6_S762A-MMH [2], the “100 nM Ag Bound” value is 9 RU, binding was characterised by a dissociation constant (Kd) of 703 nM, the koff was found to be 0.227 s⁻¹ and the association rate constant (kon) came to 323000 M⁻¹ s⁻¹. The t½ in the assay with mTMPRSS6_S762A-MMH [2] worked out at 0.05 min. Besides, in assay [4], the EC50 turned out to be 1.9 nM and the “Max. Fold Binding” value is 69 fold over unstained control.

B4: REGN7969 (antibody, human IgG4 S228P, kappa, V domains shown)
VH: QVQLVESGGGVVQPGRSLRLSCAASGFTFNNYGMHWVRQAPGKGLEWVAIISYDGSNEYYSDSVKGRFTISRDNSKNTLYLQMNSLRAEDTAVYYCARDQDYGGNLFHYWGQGTLVTVSS
VL: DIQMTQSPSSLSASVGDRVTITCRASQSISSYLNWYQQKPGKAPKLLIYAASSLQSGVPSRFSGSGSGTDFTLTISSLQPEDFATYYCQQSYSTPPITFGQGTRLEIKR
notes: fully human; human IgG4 Fc with hinge S108P; also called mAb37746
Regarding B4, the results for the “100 nM Ag Bound” value with mTMPRSS6_S762A-MMH [1] and in the assay with mTMPRSS6_S762A-MMH [2] were 4 RU and 2 RU, respectively. Besides, the binding result with mTMPRSS6_S762A-MMH [1] was “no binding (tested: 100 nM)”; in assay [3], “no binding (tested: 375 nM)”. The same molecule registered a 50% effective concentration (EC50) in assay [4] of 0.67 nM. Besides, the “Max. Fold Binding” value in assay [4] is 52 fold over unstained control.

B5: REGN7971 (antibody, human IgG4 S228P, kappa, V domains shown)
VH: QVQLVESGGGVVQPGRSLRLSCAASGFTFSTYGMHWVRQAPGKGLEWVAIISYDGSNDYYLDSVKGRFTISRDNSKNTLYLQMNNLRAEDTAVYYCAKDQGYGGNLFASWGQGTLVTVSS
VL: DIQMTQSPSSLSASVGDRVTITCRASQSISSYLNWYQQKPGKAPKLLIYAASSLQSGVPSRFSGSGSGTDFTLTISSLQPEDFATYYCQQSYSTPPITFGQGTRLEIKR
notes: fully human; human IgG4 Fc with hinge S108P; also called mAb37763
As for B5, the binding result in assay [3] was “no binding (tested: 375 nM)”. In addition, in assay [4], the response was half-maximal at 0.97 nM (EC50) and the “Max. Fold Binding” value was 66 fold over unstained control.

B6: REGN8023 (antibody, human IgG4 S228P, kappa, V domains shown)
VH: EVQLVESGGGLVKPGGSLRISCAASGFIFVDYAMHWVRQAPGKGLEWVSGISWNSGSIGYADSVKGRFTISRDNAKKSLYLQMSGLRPEDTALYYCVKSGFYYVRSYFDNWGQGTLVTVSS
VL: DIVMTQSPLSLPVTPGEPASISCRSSQSLLDSDDGNTYLDWYLRKPGQSPQLLIYTLSYRASGVPDRFSGSGSGTDFTLKISRVEADDVGVYYCMQRIEFPLTFGGGTKVEIKR
notes: fully human; human IgG4 Fc with hinge S108P; also called mAb37699
As to B6, in assay [5], the “% inhibition, HEK293 bioassay” value was determined as 82% and the “IC50, HEK293 bioassay” value worked out at 1.5 nM. Besides, in the assay with mTMPRSS6_S762A-MMH [1], the “100 nM Ag Bound” value is 209 RU, the Kd was found to be 1.84 nM, the off-rate (koff) worked out at 0.0011 s⁻¹ and the on-rate (kon) is 599000 M⁻¹ s⁻¹. The same molecule registered a t½ with mTMPRSS6_S762A-MMH [1] of 10 min. Also, in the assay with mTMPRSS6_S762A-MMH [2], the “100 nM Ag Bound” value worked out at 189 RU; the affinity, expressed as Kd, was 24.7 nM; the koff stood at 0.00666 s⁻¹; the kon was 269000 M⁻¹ s⁻¹. Moreover, the t½ in the assay with mTMPRSS6_S762A-MMH [2] amounted to 1.7 min. For the same molecule, in assay [4], a half-maximal response (EC50) required 0.7 nM and the “Max. Fold Binding” value was 47 fold over unstained control.

Source of the values: patent US20220411487A1 (Regeneron, published 2022).
